Test results: article PMC4117452, “Immunolocalization of Anti-Hsf1 to the Acetabular Glands of Infectious Schistosomes Suggests a Non-Transcriptional Function for This Transcriptional Activator”

Molecular target: T1, MBP-SmHsf1 (Schistosoma mansoni, UniProt G4VTC5 1-658)
T1 sequence: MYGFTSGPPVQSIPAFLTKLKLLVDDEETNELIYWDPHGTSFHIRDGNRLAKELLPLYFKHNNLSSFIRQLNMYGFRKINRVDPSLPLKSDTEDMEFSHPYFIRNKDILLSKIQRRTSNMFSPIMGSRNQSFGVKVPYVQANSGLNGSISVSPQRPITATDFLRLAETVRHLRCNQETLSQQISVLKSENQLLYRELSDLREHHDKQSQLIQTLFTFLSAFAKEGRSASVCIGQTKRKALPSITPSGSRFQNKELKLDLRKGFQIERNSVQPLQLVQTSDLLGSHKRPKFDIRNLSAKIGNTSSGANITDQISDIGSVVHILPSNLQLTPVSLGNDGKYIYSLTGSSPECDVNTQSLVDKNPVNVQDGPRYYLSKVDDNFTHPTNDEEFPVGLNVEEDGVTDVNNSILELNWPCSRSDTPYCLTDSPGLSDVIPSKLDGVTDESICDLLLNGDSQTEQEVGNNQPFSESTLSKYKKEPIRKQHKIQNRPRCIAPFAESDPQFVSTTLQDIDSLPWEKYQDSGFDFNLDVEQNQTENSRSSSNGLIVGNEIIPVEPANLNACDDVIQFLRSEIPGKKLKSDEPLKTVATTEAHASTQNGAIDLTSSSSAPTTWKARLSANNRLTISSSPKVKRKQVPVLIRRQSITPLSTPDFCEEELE
Test: competition; EMSA vs oKI068(ds), 250-fold unlabeled; 'great affinity'; LightShift EMSA binding buffer with glycerol, MgCl2, poly-dIdC, NP-40 (concentrations, pH and temperature not stated), 30 min; 5% native PAGE, 0.5x TBE
Conditions: protein: recombinant; tags: N-terminal MBP (pMAL-c5X); chain copies: 3; blunt

B1: oKI073/074 consensus HSE (dsDNA)
DNA 1: GATCGTCATAGAAAGTTCTAGAACGATC
DNA 2: GATCGTTCTAGAACTTTCTATGACGATC
B1: binds.
